Biological target: SARS-CoV-2 spike S1 (SARS-CoV-2, wild type (Wuhan-Hu-1), UniProt P0DTC2)
Assay: SPR

| Binder | Kd [nM] |
| --- | --- |
| S1-RBD-14_(E89K) (VHH) VHH: QVQLVESGGGLVQAGGSVRLSCAASGRSFSINPMGWFRQAPGKEREFVAAISWSGSKTVYVDSVKGRFSISRDNAKNTVYLQMNSLKPEDTAVYHCAVASRGPVYGANYVPGPHEYEYWGQGTQVTVS | 0.3 |
| S1-RBD-42_(E88K) (VHH) VHH: QVQLVESGGGLVQAGGSLRLSCVVSGSTFSNTFMDWYRQAPGKQREFVATISSGGTTNYAVFVKGRFTISRDGAKNTVYLQMNSLKPEDTAVYYCHAALPIGGDYWGQGTQVTVS | 0.1 |

— paper PMC12042621 (Structure (London, England : 1993), 2025)
